Source: publication doi:10.1101/2020.05.04.075580
Where two headings read alike, the source gives them in different places.

Columns and labels:
[1] = biological target: T1, importin alpha2_21-50 peptide (mouse, UniProt P52293); assay: NMR
[2] = biological target: T1, importin alpha2_21-50 peptide; assay: NMR; remark: listed apart in the source

B1: SOX-POU 15 bp (dsDNA)
DNA 1: GCAGATGCATAACCG
DNA 2: CGGTTATGCATCTGC
[1]
  Kd: 600 µM
[2]
  Kd: 0.3 µM
